# From patent publication US20260008847A1 (ELPISCIENCE SUZHOU BIOPHARMA, published 2026)
# Where two headings read alike, the source gives them in different places.
# Legend:
# [1] = molecular target: T1, Cell membrane human LILRB2 on human primary monocytes from healthy donors (human, UniProt Q8N423 22-597); assay: FACS on human primary monocytes, Donor #6004
# T1 construct: whole, on cells; Endogenous receptor on donor cells; the donors' alleles are not known; Also used as the target in the functional assays on PBMCs, monocytes, macrophages and dendritic cells; also called membrane LILRB2; LILRB2 on human primary monocytes, PBMCs, monocyte derived macrophages and dendritic cells
# T1 sequence (Q8N423 22-597): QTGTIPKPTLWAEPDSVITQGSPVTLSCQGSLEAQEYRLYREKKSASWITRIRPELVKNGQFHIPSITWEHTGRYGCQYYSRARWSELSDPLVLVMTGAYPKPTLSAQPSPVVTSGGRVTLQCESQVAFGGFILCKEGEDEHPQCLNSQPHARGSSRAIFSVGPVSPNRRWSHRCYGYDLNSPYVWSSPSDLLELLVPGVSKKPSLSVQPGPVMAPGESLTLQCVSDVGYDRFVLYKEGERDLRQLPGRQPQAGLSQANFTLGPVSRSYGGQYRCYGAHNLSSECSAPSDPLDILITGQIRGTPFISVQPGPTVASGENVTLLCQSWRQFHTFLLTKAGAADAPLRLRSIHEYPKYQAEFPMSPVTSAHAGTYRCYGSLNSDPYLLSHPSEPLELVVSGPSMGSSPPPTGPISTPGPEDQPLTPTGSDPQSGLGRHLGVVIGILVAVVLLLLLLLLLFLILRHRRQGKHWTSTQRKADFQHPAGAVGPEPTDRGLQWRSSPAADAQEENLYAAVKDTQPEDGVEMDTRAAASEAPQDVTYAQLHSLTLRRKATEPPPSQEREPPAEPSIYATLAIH
# [2] = molecular target: Human LILRB4 ECD recombinant protein with 6×His-tag (human) (UniProt Q8NHJ6); assay: ELISA: plate coated with LILRB4 ECD recombinant protein, antibody at 0.5 ug/mL (method of example 3.2.1); mean OD450 printed over the bar [continued) H]
# [3] = molecular target: T2, Human LILRB2 stably expressed on EL4 cells (EL4/LILRB2) (human, UniProt Q8N423 22-597); assay: competitive FACS on EL4/LILRB2 cells, blockade of HLA-G binding
# T2 construct: also called EL4-LILRB2 cells; cell membrane human LILRB2
# T2 sequence (Q8N423 22-597 limits assumed): as the sequence (Q8N423 22-597) above
# Method: (§1) The blocking activities were determined by quantitating the blockade of the ligands binding to EL4/LILRB2 cells.
# [4] = molecular target: T2, Human LILRB2 stably expressed on EL4 …; assay: competitive FACS on EL4/LILRB2 cells, blockade of HLA-A2 binding
# Method: as §1
# [5] = molecular target: T2, Human LILRB2 stably expressed on EL4 …; assay: FACS on EL4/LILRB2 cells
# [6] = molecular target: T2, Human LILRB2 stably expressed on EL4 …; assay: Competitive FACS: EL4/LILRB2 cells preincubated with 10 ug/mL antibody, then ANGPTL7 added; inhibition of the ligand's binding to the cells [panel ANGPTL7]
# Method: as §1
# [7] = molecular target: T3, Human LILRB1 ECD recombinant protein with 6×His-tag (human, UniProt Q8NHL6 24-458, limits assumed); assay: ELISA: plate coated with LILRB1 ECD recombinant protein, antibody at 0.5 ug/mL (method of example 3.2.1); mean OD450 printed over the bar [continued) F]
# T3 construct: Bought protein; not shown: 6×His-tag
# T3 sequence (Q8NHL6 24-458 limits assumed): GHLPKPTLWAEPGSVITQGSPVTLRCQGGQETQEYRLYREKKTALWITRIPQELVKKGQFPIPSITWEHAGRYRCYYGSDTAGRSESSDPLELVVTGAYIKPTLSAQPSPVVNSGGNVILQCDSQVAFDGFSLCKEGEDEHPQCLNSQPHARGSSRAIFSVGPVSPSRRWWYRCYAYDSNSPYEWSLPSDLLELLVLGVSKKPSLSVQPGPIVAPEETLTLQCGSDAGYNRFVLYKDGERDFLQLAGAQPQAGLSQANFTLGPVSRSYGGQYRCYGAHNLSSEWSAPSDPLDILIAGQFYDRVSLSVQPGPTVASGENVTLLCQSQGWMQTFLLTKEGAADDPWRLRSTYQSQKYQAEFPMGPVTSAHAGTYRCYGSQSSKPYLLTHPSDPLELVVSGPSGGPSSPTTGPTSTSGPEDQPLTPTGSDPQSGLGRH
# [8] = molecular target: T1, Cell membrane human LILRB2 on human …; assay: cell-based or functional assay
# [9] = molecular target: T4, Human LILRA2 ECD recombinant protein with His-tag (human, UniProt Q8N149 24-449); assay: ELISA: plate coated with LILRA2 ECD recombinant protein, antibody at 0.5 ug/mL (method of example 3.2.1); mean OD450 printed over the bar [continued) B]
# T4 construct: range 24-449; Bought protein; not shown: His-tag
# T4 sequence (Q8N149 24-449 limits assumed): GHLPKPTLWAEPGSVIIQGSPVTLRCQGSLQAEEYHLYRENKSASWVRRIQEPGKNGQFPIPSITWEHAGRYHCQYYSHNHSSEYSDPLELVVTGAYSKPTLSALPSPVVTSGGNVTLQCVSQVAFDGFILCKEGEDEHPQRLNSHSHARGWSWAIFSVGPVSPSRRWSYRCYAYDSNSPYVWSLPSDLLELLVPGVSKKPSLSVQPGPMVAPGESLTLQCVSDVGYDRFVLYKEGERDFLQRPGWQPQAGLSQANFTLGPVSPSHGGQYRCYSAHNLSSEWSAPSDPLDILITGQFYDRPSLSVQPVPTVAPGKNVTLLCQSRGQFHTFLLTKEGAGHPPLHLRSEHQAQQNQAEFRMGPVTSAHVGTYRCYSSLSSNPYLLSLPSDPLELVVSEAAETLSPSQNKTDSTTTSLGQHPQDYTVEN
# [10] = molecular target: T1, Cell membrane human LILRB2 on human …; assay: FACS on human primary monocytes, Donor #1045
# [11] = molecular target: T2, Human LILRB2 stably expressed on EL4 …; assay: competitive FACS, blockade of HLA-G binding to LILRB2 on cells
# Method: as §1
# [12] = molecular target: T5, Human LILRA4 ECD recombinant protein with 6×His-tag (human, UniProt P59901 24-446); assay: ELISA: plate coated with LILRA4 ECD recombinant protein, antibody at 0.5 ug/mL (method of example 3.2.1); mean OD450 printed over the bar [continued) D]
# T5 construct: range 1-446; Bought protein; not shown: 6×His-tag
# T5 sequence (P59901 24-446 limits assumed): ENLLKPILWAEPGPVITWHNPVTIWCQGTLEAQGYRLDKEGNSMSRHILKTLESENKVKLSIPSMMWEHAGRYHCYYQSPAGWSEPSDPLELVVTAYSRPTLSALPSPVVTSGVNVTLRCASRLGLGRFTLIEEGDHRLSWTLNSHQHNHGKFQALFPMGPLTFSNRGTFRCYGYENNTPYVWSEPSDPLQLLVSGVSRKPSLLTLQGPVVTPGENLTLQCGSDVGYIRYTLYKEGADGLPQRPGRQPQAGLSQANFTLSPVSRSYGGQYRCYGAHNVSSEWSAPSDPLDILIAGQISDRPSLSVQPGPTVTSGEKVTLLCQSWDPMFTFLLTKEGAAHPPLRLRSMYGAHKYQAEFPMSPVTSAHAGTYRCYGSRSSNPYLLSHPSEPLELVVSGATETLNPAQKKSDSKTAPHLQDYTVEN
# [13] = molecular target: T2, Human LILRB2 stably expressed on EL4 …; assay: Competitive FACS: EL4/LILRB2 cells preincubated with 10 ug/mL antibody, then ANGPTL4 added; inhibition of the ligand's binding to the cells [panel ANGPTL4]
# Method: as §1
# [14] = molecular target: T6, 6×His-tagged human LILRB2 ECD recombinant protein (human, UniProt Q8N423 22-458, limits assumed); assay: Octet tandem binning on captured 6×His LILRB2 ECD; competitor (Ab1) 1E1
# T6 construct: Bought protein; not shown: 6×His-tag
# T6 sequence (Q8N423 22-458 limits assumed): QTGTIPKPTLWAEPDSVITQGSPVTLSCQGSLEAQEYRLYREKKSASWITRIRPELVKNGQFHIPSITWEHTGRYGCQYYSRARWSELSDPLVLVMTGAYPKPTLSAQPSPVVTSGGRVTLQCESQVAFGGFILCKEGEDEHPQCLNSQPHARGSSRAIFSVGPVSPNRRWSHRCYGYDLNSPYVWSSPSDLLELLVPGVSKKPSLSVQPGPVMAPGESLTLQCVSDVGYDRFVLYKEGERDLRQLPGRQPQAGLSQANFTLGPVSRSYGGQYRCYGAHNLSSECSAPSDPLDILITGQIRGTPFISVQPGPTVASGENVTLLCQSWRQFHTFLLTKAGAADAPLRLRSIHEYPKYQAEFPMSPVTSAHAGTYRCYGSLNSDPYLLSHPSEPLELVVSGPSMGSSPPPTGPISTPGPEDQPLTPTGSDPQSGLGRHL
# [15] = molecular target: T2, Human LILRB2 stably expressed on EL4 …; assay: FACS on EL4/LILRB2 cells; remark: listed apart in the source
# [16] = molecular target: T7, Human LILRB5 ECD recombinant protein with 6×His-tag (human, UniProt O75023 24-458, limits assumed); assay: ELISA: plate coated with LILRB5 ECD recombinant protein [continued) I]
# T7 construct: Bought protein; not shown: 6×His-tag
# T7 sequence (O75023 24-458 limits assumed): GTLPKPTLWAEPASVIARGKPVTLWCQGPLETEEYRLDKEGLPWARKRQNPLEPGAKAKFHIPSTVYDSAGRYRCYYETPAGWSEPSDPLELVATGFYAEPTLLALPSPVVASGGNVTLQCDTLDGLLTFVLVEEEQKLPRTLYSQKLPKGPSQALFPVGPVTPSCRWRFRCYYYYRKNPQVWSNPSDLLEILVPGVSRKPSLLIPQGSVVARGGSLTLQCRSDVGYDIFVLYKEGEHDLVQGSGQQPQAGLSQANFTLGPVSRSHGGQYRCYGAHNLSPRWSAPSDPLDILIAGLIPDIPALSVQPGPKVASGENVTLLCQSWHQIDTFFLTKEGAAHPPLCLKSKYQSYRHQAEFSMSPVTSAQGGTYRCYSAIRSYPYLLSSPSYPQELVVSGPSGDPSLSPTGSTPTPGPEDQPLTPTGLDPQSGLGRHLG
binder,measurement,setting,value
"043c (antibody, V domains shown, Human IgG4 chimeric antibody with S228P mutation at the Fc region; also called chimeric antibody 043c; parental antibody 043c) VH: QVQLQQSGAELAKPGASVKLSCKASGYTFTSYWMYWVKQRPGQGLEWIGHINPSSGYTKYNQKFKDKATLTADKSSSTAYMQLSSLTYEDSAVYYCARDPNWDNYWGQGTTLTVSS VL: DIVMTQSHKFMSTSVGDRVSITCKASQDVSIAVAWYQQKPGQSPKLLIYSASYRYTGVPDRFTGSGSGTDFTFTISSVQAEDLAVYYCQQHYSTPYTFGGGTKLEIK",EC50,[1],290 pM
same,OD450,[2],0.11
same,IC50,[3],100 pM
same,TOP Blocking (%),[3],100%
same,IC50,[4],480 pM
same,EC50,[5],450 pM
same,TOP MFI,[5],45300 MFI
same,Inhibition (%),[6],89%
same,OD450,[7],0.08
same,"Relative cytokine level, CCL2/JE/MCP-1 (DC differentiation assay, Soluble antibody, Luminex)",[8],2.36 fold of hIgG4 iso
same,"Relative cytokine level, CCL3/MIP-1 alpha (DC differentiation assay, Pre-coat antibody, Luminex)",[8],> 5 fold of hIgG4 iso
same,"Relative cytokine level, CCL3/MIP-1 alpha (DC differentiation assay, Soluble antibody, Luminex)",[8],5.79 fold of hIgG4 iso
same,"Relative cytokine level, CCL20/MIP-3 alpha (DC differentiation assay, Pre-coat antibody, Luminex)",[8],1.75 fold of hIgG4 iso
same,"Relative cytokine level, CCL20/MIP-3 alpha (DC differentiation assay, Soluble antibody, Luminex)",[8],1.88 fold of hIgG4 iso
same,"Relative cytokine level, CCL22/MDC (DC differentiation assay, Pre-coat antibody, Luminex)",[8],2.61 fold of hIgG4 iso
same,"Relative cytokine level, CCL22/MDC (DC differentiation assay, Soluble antibody, Luminex)",[8],2.03 fold of hIgG4 iso
same,"Relative cytokine level, CCL23/MPIF-1 (DC differentiation assay, Pre-coat antibody, Luminex)",[8],0.48 fold of hIgG4 iso
same,"Relative cytokine level, CCL23/MPIF-1 (DC differentiation assay, Soluble antibody, Luminex)",[8],0.73 fold of hIgG4 iso
same,"Relative cytokine level, IFN-beta (DC differentiation assay, Pre-coat antibody, Luminex)",[8],3.39 fold of hIgG4 iso
same,"Relative cytokine level, IFN-beta (DC differentiation assay, Soluble antibody, Luminex)",[8],7.24 fold of hIgG4 iso
same,"Relative cytokine level, IL6 (DC differentiation assay, Soluble antibody, Luminex)",[8],1.93 fold of hIgG4 iso
same,"Relative cytokine level, IL-1 alpha/IL-1F1 (DC differentiation assay, Pre-coat antibody, Luminex)",[8],1.71 fold of hIgG4 iso
same,"Relative cytokine level, IL-1 alpha/IL-1F1 (DC differentiation assay, Soluble antibody, Luminex)",[8],1.71 fold of hIgG4 iso
same,"Relative cytokine level, IL-6 (DC differentiation assay, Pre-coat antibody, Luminex)",[8],1.61 fold of hIgG4 iso
same,"Relative cytokine level, IL-8/CXCL8 (DC differentiation assay, Soluble antibody, Luminex)",[8],1.65 fold of hIgG4 iso
same,"Relative cytokine level, IL-10 (DC differentiation assay, Pre-coat antibody, Luminex)",[8],2.16 fold of hIgG4 iso
same,"Relative cytokine level, IL-10 (DC differentiation assay, Soluble antibody, Luminex)",[8],1.69 fold of hIgG4 iso
same,"Relative cytokine level, TNFα (DC differentiation assay, Pre-coat antibody, Luminex)",[8],5.38 fold of hIgG4 iso
same,"Relative cytokine level, TNFα (DC differentiation assay, Soluble antibody, Luminex)",[8],4.71 fold of hIgG4 iso
same,"Relative cytokine level, VEGF (DC differentiation assay, Pre-coat antibody, Luminex)",[8],1.67 fold of hIgG4 iso
same,"Relative cytokine level, VEGF (DC differentiation assay, Soluble antibody, Luminex)",[8],1.43 fold of hIgG4 iso
same,OD450,[9],0.08
same,EC50,[10],320 pM
same,IC50,[11],110 pM
same,TOP Blocking (%),[11],100%
same,OD450,[12],0.13
same,Inhibition (%),[13],63%
same,relative binding signal of Ab2 in tandem,[14],108%
same,EC50,[15],730 pM
same,binding result,[16],no binding (tested: 0.5 ug/mL)
"J-19 (antibody, V domains shown, Human IgG4 monoclonal antibody with S228P in the constant region, made according to WO 2019/126514 A2; also called benchmark antibody J-19) VH: QVTLKESGPGILQPSHTLSLTCSFSGFSLNTYAMGVSWIRQPSGKGLEWLASIWWNGNKYNNPSLKSRLTVSKDTSNNQAFLKVTSVDTADTATYYCAHSRIIRFTDYVMDAWGQGASVTVSS VL: DIQMTQSPASLSTFLGEPVTIECRASEDIYNDLAWYQQKPGKSPQLLIYNANSLHTGVPSRFSGSGSGTQYSLKINSLQSEDVASYFCQQYYDYPLTFGSGTKLEIK",OD450,[2],0.14
same,IC50,[3],40 pM
same,TOP Blocking (%),[3],100%
same,Inhibition (%),[6],97%
same,OD450,[7],0.1
same,OD450,[9],0.08
same,IC50,[11],70 pM
same,TOP Blocking (%),[11],100%
same,OD450,[12],0.17
same,Inhibition (%),[13],59%
same,relative binding signal of Ab2 in tandem,[14],32%
same,binding result,[16],no binding (tested: 0.5 ug/mL)
"1E1 (antibody, V domains shown, Human IgG4 monoclonal antibody with S228P in the constant region, made according to US 2018/0298096 A1; also called benchmark antibody 1E1) VH: QVQLQQWGAGLLKPSETLSLTCAVYGGSFSGYYWSWIRQPPGKGLEWIGEINHSGSTNYNPSLKSRVTISVDTSKNQFSLKLSSVTAADTAVYYCARLPTRWVTTRYFDLWGRGTLVTVSS VL: QSVLTQPPSVSGAPGQRVTISCTGSSSNIGAGYDVHWYQQLPGTAPKLLIYGNSNRPSGVPDRFSVSKSGASASLAITGLQAEDEADYYCQSFDNSLSAYVFGGGTQLTVL",EC50,[1],910 pM
same,OD450,[2],0.1
same,IC50,[3],320 pM
same,TOP Blocking (%),[3],100%
same,Inhibition (%),[6],96%
same,OD450,[7],0.08
same,OD450,[9],0.07
same,EC50,[10],840 pM
same,OD450,[12],0.12
same,Inhibition (%),[13],54%
same,relative binding signal of Ab2 in tandem,[14],3%
same,binding result,[16],no binding (tested: 0.5 ug/mL)
